Here are results for 62 sequences from the supplement of paper PMC7877785.

A short description of this data set: self-splicing fitness, log relative to wild type (ln ratio); higher = more splicing; Tetrahymena group I intron in knt gene, E. coli kanamycin selection, DiMSum; sequences stand for … in CUCUCU…GGAGGGAAAAGUUAUCAGGCAUGCACCUGGUAGCUAGUCUUUAAACCAAUAGAUUGCAUCGGUUUAAAAGGCAAGACCGUCAAAUUGCGGGAAAGGGGUCAACAGCCGUUCAGUACCAAGUCUCAGGGGAAACUUUGAGAUGGCCUUGCAAAGGGUAUGGUAAUAAGCUGACGGACAUGGUCCUAACCACGCAGCCAAGUCCUAAGUCAACAGAUCUUCUGUUGAUAUGGAUGCAGUUCACAGACUAAAUGUCGGUCGGGGAAGAUGUAUUCUUCUCAUAAGAUAUAGUCGGACCUCUCCUUAAUGGGAGCUAGCGGAUGAAGUGAUGCAACACUGGAGCCGCUGGGAACUAAUUUGUAUGCGAAAGUAUAUUGAUUAGUUUUGGAGUACUCGUGGUCG
The procedure, abridged: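 Fitness was computed with DiMSum as the error-weighted combination of replicate fold changes, kanamycin versus none, each normalised to wild type. The library randomised all eight intron nucleotides of the P1ex region, with the intron placed in the knt kanamycin-resistance gene on pET-22b(+) in E. coli BL21(DE3). Six replicate transformations were grown overnight at 37°C or 30°C on LB agar with or without 25 μg/mL kanamycin, plus 100 μg/mL carbenicillin, 50 μM IPTG and 0.2% rhamnose. Pooled colonies were amplicon-sequenced on an Illumina HiSeq 2500.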

± gives the uncertainty stated by the source.

Regarding GCGGAGCAAUAUUACGGCGC, the “self-splicing fitness (ln)” value (30 °C) is -2.22 ± 0.36.

For the sequence AUCUAGCAAUAUUACGCCCA, the “self-splicing fitness (ln)” value runs as follows: (30 °C) -0.101 ± 0.29; (37 °C) -1.32 ± 0.24.

Regarding UCGUAGCAAUAUUACGAGAC, the “self-splicing fitness (ln)” value was -1.72 ± 0.37 (30 °C) and -3.18 ± 0.37 (37 °C).

For GCAAAGCAAUAUUACGAAUA, the “self-splicing fitness (ln)” value (30 °C) was -2.56 ± 0.17 and the “self-splicing fitness (ln)” value (37 °C) is -0.704 ± 0.13.

As to ACCGAGCAAUAUUACGUAAU, the “self-splicing fitness (ln)” value is, setting by setting: (30 °C) -3.19 ± 0.12; (37 °C) -1.54 ± 0.13.

As to UUUGAGCAAUAUUACGUACG, the “self-splicing fitness (ln)” value (30 °C) is -1.49 ± 0.32 and the “self-splicing fitness (ln)” value (37 °C) was -0.599 ± 0.35.

On to UACAAGCAAUAUUACGGUGA, for which the “self-splicing fitness (ln)” value by setting is: (30 °C) -1.28 ± 0.082; (37 °C) -0.89 ± 0.1.

In the case of GGUAAGCAAUAUUACGGCCA, under “30 °C”, the “self-splicing fitness (ln)” value was -1.91 ± 0.39.

For UCCCAGCAAUAUUACGAAUC, the “self-splicing fitness (ln)” value is, setting by setting: (30 °C) -2.49 ± 0.26; (37 °C) -1.93 ± 0.3.

As for CACCAGCAAUAUUACGACUA, the “self-splicing fitness (ln)” value (30 °C) is -0.763 ± 0.12 and the “self-splicing fitness (ln)” value (37 °C) is -1.3 ± 0.17.

In the case of GUACAGCAAUAUUACGCAGC, the “self-splicing fitness (ln)” value (30 °C) was -2.41 ± 0.17 and the “self-splicing fitness (ln)” value (37 °C) was -2.33 ± 0.23.

For CAACAGCAAUAUUACGACUG, the “self-splicing fitness (ln)” value is -0.232 ± 0.052 (30 °C) and 0.0876 ± 0.072 (37 °C).

For ACAUAGCAAUAUUACGCGUA, the “self-splicing fitness (ln)” value runs as follows: (30 °C) -2.19 ± 0.091; (37 °C) -0.613 ± 0.086.

In the case of GAGAAGCAAUAUUACGAUUA, the “self-splicing fitness (ln)” value is -0.739 ± 0.099 (30 °C) and 0.245 ± 0.081 (37 °C).

Consider AUCCAGCAAUAUUACGGGUU, for which the “self-splicing fitness (ln)” value reads like this: (30 °C) -3.75 ± 0.15; (37 °C) -2.89 ± 0.21.

For the sequence GUUGAGCAAUAUUACGUGUU, the “self-splicing fitness (ln)” value is -3.15 ± 0.25 (30 °C) and -2.29 ± 0.3 (37 °C).

Regarding CGGAAGCAAUAUUACGCACA, the “self-splicing fitness (ln)” value is -1.07 ± 0.15 (30 °C) and 0.386 ± 0.16 (37 °C).

Take GCCAAGCAAUAUUACGCAAU: the “self-splicing fitness (ln)” value (30 °C) is -1.35 ± 0.075 and the “self-splicing fitness (ln)” value (37 °C) was -0.812 ± 0.082.

On to ACUGAGCAAUAUUACGUGCC, for which the “self-splicing fitness (ln)” value (30 °C) is -2.31 ± 0.23.

CUCAAGCAAUAUUACGUGUG: the “self-splicing fitness (ln)” value is, setting by setting: (30 °C) -2.73 ± 0.074; (37 °C) -1.42 ± 0.072.

Consider CGAGAGCAAUAUUACGGGGA, for which the “self-splicing fitness (ln)” value runs as follows: (30 °C) -3.24 ± 0.47; (37 °C) -1.74 ± 0.31.

As to AGAAAGCAAUAUUACGGCUA, the “self-splicing fitness (ln)” value (30 °C) was -0.324 ± 0.12 and the “self-splicing fitness (ln)” value (37 °C) was found to be 0.117 ± 0.13.

Take CGGUAGCAAUAUUACGAACC: where the note is “37 °C”, the “self-splicing fitness (ln)” value was -1.2 ± 0.31.

With GGGCAGCAAUAUUACGUAUG, the “self-splicing fitness (ln)” value is -3.15 ± 0.23 (30 °C) and -1.44 ± 0.22 (37 °C).

With AUGCAGCAAUAUUACGUCGG, the “self-splicing fitness (ln)” value by setting is: (30 °C) -2.43 ± 0.22; (37 °C) -1.91 ± 0.26.

For the sequence CAUAAGCAAUAUUACGCUAG, the “self-splicing fitness (ln)” value by setting is: (30 °C) -3.34 ± 0.16; (37 °C) -2.4 ± 0.15.

With CUGGAGCAAUAUUACGAUGG, the “self-splicing fitness (ln)” value reads like this: (30 °C) -3.66 ± 0.26; (37 °C) -1.47 ± 0.22.

For the sequence GUAGAGCAAUAUUACGGGCA, the “self-splicing fitness (ln)” value is, setting by setting: (30 °C) -1.69 ± 0.15; (37 °C) -0.35 ± 0.21.

For the sequence GCUAAGCAAUAUUACGCCGA, the “self-splicing fitness (ln)” value is, setting by setting: (30 °C) -2.09 ± 0.33; (37 °C) -1.28 ± 0.2.

For the sequence UGUUAGCAAUAUUACGUCCA, the “self-splicing fitness (ln)” value was -0.514 ± 0.071 (30 °C) and 0.305 ± 0.13 (37 °C).

On to AGUGAGCAAUAUUACGGAGC, for which the “self-splicing fitness (ln)” value by setting is: (30 °C) -1.89 ± 0.18; (37 °C) -3.36 ± 0.33.

Consider UUGCAGCAAUAUUACGACUG, for which the “self-splicing fitness (ln)” value is -2.52 ± 0.19 (30 °C) and -1.72 ± 0.2 (37 °C).

UCGGAGCAAUAUUACGAGGC: for the setting “30 °C”, the “self-splicing fitness (ln)” value is -2.74 ± 0.42.

Consider UAAGAGCAAUAUUACGAGUC, for which the “self-splicing fitness (ln)” value (30 °C) is -3.17 ± 0.49.

On to UGCGAGCAAUAUUACGGCGU, for which the “self-splicing fitness (ln)” value is -2.58 ± 0.18 (30 °C) and -0.48 ± 0.2 (37 °C).

For GCCCAGCAAUAUUACGGCAC, the “self-splicing fitness (ln)” value (30 °C) was -1.45 ± 0.067 and the “self-splicing fitness (ln)” value (37 °C) was -0.0437 ± 0.094.

As to ACAUAGCAAUAUUACGUCAU, the “self-splicing fitness (ln)” value by setting is: (30 °C) -3.16 ± 0.1; (37 °C) -2.35 ± 0.13.

As to GACCAGCAAUAUUACGUGGC, the “self-splicing fitness (ln)” value (30 °C) is -4.25 ± 0.21 and the “self-splicing fitness (ln)” value (37 °C) was -2.88 ± 0.16.

Take GUCUAGCAAUAUUACGCCCA: the “self-splicing fitness (ln)” value by setting is: (30 °C) -0.688 ± 0.26; (37 °C) -0.356 ± 0.26.

On to GAUUAGCAAUAUUACGUCUU, for which the “self-splicing fitness (ln)” value is, setting by setting: (30 °C) -0.485 ± 0.086; (37 °C) -0.732 ± 0.088.

For UACAAGCAAUAUUACGAGUU, the “self-splicing fitness (ln)” value (30 °C) is -2.14 ± 0.069 and the “self-splicing fitness (ln)” value (37 °C) was -0.96 ± 0.074.

As to GACUAGCAAUAUUACGCGUC, the “self-splicing fitness (ln)” value by setting is: (30 °C) -3.14 ± 0.16; (37 °C) -2.78 ± 0.23.

Consider AGGCAGCAAUAUUACGAACC, for which the “self-splicing fitness (ln)” value by setting is: (30 °C) -0.0701 ± 0.18; (37 °C) -1.03 ± 0.2.

As for AGGCAGCAAUAUUACGCGUG, the “self-splicing fitness (ln)” value is -2.48 ± 0.13 (30 °C) and -0.717 ± 0.11 (37 °C).

CUGAAGCAAUAUUACGCUUC: the “self-splicing fitness (ln)” value was -3.51 ± 0.19 (30 °C) and -2.56 ± 0.19 (37 °C).

Regarding GAGGAGCAAUAUUACGCAAC, the “self-splicing fitness (ln)” value (30 °C) is -2.75 ± 0.38.

Regarding GUGUAGCAAUAUUACGCAAU, the “self-splicing fitness (ln)” value (30 °C) is -2.06 ± 0.22 and the “self-splicing fitness (ln)” value (37 °C) was -1.26 ± 0.18.

Regarding GAUAAGCAAUAUUACGUUUC, the “self-splicing fitness (ln)” value by setting is: (30 °C) -3.88 ± 0.18; (37 °C) -2.34 ± 0.2.

With CCCUAGCAAUAUUACGUAGA, the “self-splicing fitness (ln)” value (30 °C) is -4.06 ± 0.26 and the “self-splicing fitness (ln)” value (37 °C) was -3.05 ± 0.26.

Regarding CUCUAGCAAUAUUACGUCUG, the “self-splicing fitness (ln)” value is -2.34 ± 0.12 (30 °C) and -2.27 ± 0.18 (37 °C).

As to GUUAAGCAAUAUUACGUUUA, the “self-splicing fitness (ln)” value runs as follows: (30 °C) -2.74 ± 0.15; (37 °C) -1.61 ± 0.11.

As to CGCGAGCAAUAUUACGUGCA, the “self-splicing fitness (ln)” value runs as follows: (30 °C) -2.08 ± 0.099; (37 °C) -0.511 ± 0.095.

As for GGUAAGCAAUAUUACGGAUC, the “self-splicing fitness (ln)” value is, setting by setting: (30 °C) 0.0183 ± 0.15; (37 °C) 0.125 ± 0.21.

For the sequence AUGAAGCAAUAUUACGCUAA, the “self-splicing fitness (ln)” value is -1.32 ± 0.1 (30 °C) and -0.00859 ± 0.13 (37 °C).

Regarding AUACAGCAAUAUUACGCGGA, the “self-splicing fitness (ln)” value is, setting by setting: (30 °C) -2.02 ± 0.17; (37 °C) -1.74 ± 0.14.

In the case of UAUAAGCAAUAUUACGGGAU, the “self-splicing fitness (ln)” value is, setting by setting: (30 °C) -3.79 ± 0.32; (37 °C) -2.86 ± 0.19.

In the case of AUAGAGCAAUAUUACGGAUU, the “self-splicing fitness (ln)” value was -0.783 ± 0.091 (30 °C) and -0.15 ± 0.14 (37 °C).

In the case of UAUUAGCAAUAUUACGUGCA, the “self-splicing fitness (ln)” value reads like this: (30 °C) -0.96 ± 0.16; (37 °C) -0.986 ± 0.16.

Consider GAGAAGCAAUAUUACGCUAC, for which the “self-splicing fitness (ln)” value is -3.38 ± 0.18 (30 °C) and -1.58 ± 0.18 (37 °C).

As for CACUAGCAAUAUUACGUCGA, the “self-splicing fitness (ln)” value (30 °C) was -1.58 ± 0.13 and the “self-splicing fitness (ln)” value (37 °C) was -1.48 ± 0.1.

With GCUGAGCAAUAUUACGUCCA, the “self-splicing fitness (ln)” value (30 °C) is -1.97 ± 0.27 and the “self-splicing fitness (ln)” value (37 °C) is -2.32 ± 0.37.

As for GACCAGCAAUAUUACGUUAC, the “self-splicing fitness (ln)” value is -1.65 ± 0.052 (30 °C) and -0.38 ± 0.067 (37 °C).
